Assay results taken from patent US20090317401A1.

Key:
Test in all cases: cell-based or functional assay
[1] = target: CD16 receptor on PB-NK cells (human) (UniProt P08637)
[2] = target: human CD160 receptor (human) (UniProt O95971)
[3] = target: HLA-C expressed on K562class I+ cells (human) (UniProt P10321)
UniProt P10321, sequence (P10321 25-366): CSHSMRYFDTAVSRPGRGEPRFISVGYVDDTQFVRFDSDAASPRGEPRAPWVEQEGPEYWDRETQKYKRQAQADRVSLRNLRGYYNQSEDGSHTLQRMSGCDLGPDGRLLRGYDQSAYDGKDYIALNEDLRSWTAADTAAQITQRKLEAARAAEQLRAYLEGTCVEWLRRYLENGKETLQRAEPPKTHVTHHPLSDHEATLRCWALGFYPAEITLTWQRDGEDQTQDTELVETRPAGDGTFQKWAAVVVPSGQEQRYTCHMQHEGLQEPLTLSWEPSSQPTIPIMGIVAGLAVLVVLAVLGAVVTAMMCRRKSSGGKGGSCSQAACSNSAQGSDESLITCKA

UniProt O95971, sequence (O95971 25-159): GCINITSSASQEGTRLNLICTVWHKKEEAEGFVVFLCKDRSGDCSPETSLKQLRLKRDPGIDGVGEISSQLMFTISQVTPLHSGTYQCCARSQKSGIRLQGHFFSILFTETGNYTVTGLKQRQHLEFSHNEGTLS
UniProt P08637, sequence (P08637 17-254): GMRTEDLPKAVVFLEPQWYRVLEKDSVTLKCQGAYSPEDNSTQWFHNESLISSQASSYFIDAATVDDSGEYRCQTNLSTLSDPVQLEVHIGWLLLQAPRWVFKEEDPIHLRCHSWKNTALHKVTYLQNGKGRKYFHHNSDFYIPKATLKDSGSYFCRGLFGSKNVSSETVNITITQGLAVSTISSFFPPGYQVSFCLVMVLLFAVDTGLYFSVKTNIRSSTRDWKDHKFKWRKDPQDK

3G8 anti-CD16 mAb (IgG1; Beckman-Coulter) (antibody)
IFN-γ production by PB-NK after mAb cross-linking of CD16, against CD160 engagement [1]: 30 fold less

HLA-C expressed on K562class I+ cells (from UniProt P10321 25-366) (ligand)
IFN-γ production by PB-NK co-cultured 16 h with K562Class-I+ (Cytometric Bead Array) [2]: 29400 pg/mL | IFN-γ production by PB-NK co-cultured with K562Class-I+ in the presence of IgG1 isotype control [2]: 23100 pg/mL | IFN-γ production by PB-NK co-cultured with K562Class-I+ in the presence of IgG2a isotype control [2]: 16100 pg/mL | IL-6 production by PB-NK co-cultured 16 h with K562Class-I+ (Cytometric Bead Array) [2]: 620 pg/mL | IL-6 production by PB-NK co-cultured with K562Class-I+ in the presence of IgG1 isotype control [2]: 414 pg/mL | IL-6 production by PB-NK co-cultured with K562Class-I+ in the presence of IgG2a isotype control [2]: 478 pg/mL | TNF-α production by PB-NK co-cultured 16 h with K562Class-I+ (Cytometric Bead Array) [2]: 334 pg/mL | TNF-α production by PB-NK co-cultured with K562Class-I+ in the presence of IgG1 isotype control [2]: 200 pg/mL | TNF-α production by PB-NK co-cultured with K562Class-I+ in the presence of IgG2a isotype control [2]: 215 pg/mL

HLA-Cw5 on K562-HLA-Cw5 transfectants (ligand)
IFN-γ production by PB-NK co-cultured 16 h with K562-Cw5 (Cytometric Bead Array) [2]: 20100 pg/mL | IL-6 production by PB-NK co-cultured 16 h with K562-Cw5 (Cytometric Bead Array) [2]: 689 pg/mL | TNF-α production by PB-NK co-cultured 16 h with K562-Cw5 (Cytometric Bead Array) [2]: 389 pg/mL

W6/32 anti-HLA mAb (IgG2a; ATCC HB-95) (antibody)
IFN-γ production by PB-NK co-cultured with K562Class-I+ in the presence of blocking anti-HLA-C mAb [3]: 1150 pg/mL | IL-6 production by PB-NK co-cultured with K562Class-I+ in the presence of blocking anti-HLA-C mAb [3]: 370 pg/mL | TNF-α production by PB-NK co-cultured with K562Class-I+ in the presence of blocking anti-HLA-C mAb [3]: 64 pg/mL
